Experimental data as given in the DeepSol protein solubility set.

assay: soluble on expression in E. coli; label from the status in PepcDB or PDB records

Sequence	soluble on expression in E. coli
MASIADAIGKILTAHSPYPAVVVDRHWNMVDANDAVAVLTEGCAAELLEPPVNVLRLSLHPDGMAPRILDLAQWRGHLLHRLRHQIAVTGDDGLRDLLRELEGYPGGTVGSAELPGSLVVPLRIRHHETVLAFLSTTTMFGTPLDVTVAELAIESFFPADAVTAATLRSSVSSD	soluble
MASISEKMVEALNRQINAEIYSAYLYLSMASYFDSIGLKGFSNWMRVQWQEELMHAMKMFDFVSERGGRVKLYAVEEPPSEWDSPLAAFEHVYEHEVNVTKRIHELVEMAMQEKDFATYNFLQWYVAEQVEEEASALDIVEKLRLIGEDKRALLFLDKELSLRQFTPPAEEEK	soluble
MASLCNSIIGWIKNDKEVRLRKRGDTSRRDAVEAGFEPRDTVPRCHSTQSLRDVQRVRSYNNSQFQASDLSLNPNGSIRAACDSTSGSVAPTAVVNPARNHVISHRQQHHTSYEKDLIPHHNIDVDRRRSLQALNGSSALYQLNNGGSPNGVRSQFSPSDLSIHTPVHHVGSRVRVSSVNQICDSNSAPQFSIDQRRSVHNIGNPVRNSFVDGIKTTSTPKNQIAVAPLAHKSRHLSESRDEMRGGAERRGSGGQMNLPAYTNYLIRHSGEERLVDGPVTNASDARIAYLEKRIRELELTQKEQSSHSTPSQSRHSSSKSSHFNGSSNLSTSEQLRLQEMSDELANKDRKVTSLESKLLKAYQRIERLNEEYDGKIKNLMYDSERARDDLTRCVDKIQQLENELDETRAAVQNGDHANEQEYHELRDKIWKQERELQESRTLLTRLREKEAEFERMRSEKGYLELKNENLNKKLEAKKRAVEELERSVSTLRLEQTICQQSCSSGSTPLADEMEIMSDIRPSLARPYTKAHSTLGSHNMSPLSHSKSSGLTKSFSNFALNSSKQRDDITANMSRSIREQNRHITMCRAMVVCLKDTVDRMARGENPDVARLLGVKLNVMSESEMEDDEDHEADASQPFSMMSAESALSKQCGKLADLDKDLDTIRCQLADWHGQTNAEGDGDRDVCRVQ	not soluble
MASMNDFIGRWKLVQTENFDEYMKEIGVGLITRKAAAHLKPILEIRLDGETWNFDQFSTFKNTKLSFKLGEEFVENSPDDRTYNSLFTFENGKLTHRQNKIKENHKSSVLTTWLENGKLIQTYQSGDVICRREWERE	not soluble
MASMTGGQQMGRGSGIVQQQSNLLRAIEAQQHLLQLTVWGIKQGGGGSEWEREISNYTDIIYRLIEESQNQQEKNEQELLALDKWASLWNWFDITNWLWYIQHHHHHH	soluble
MASPSKAVIVPGNGGGDVTTHGWYGWVKKELEKIPGFQCLAKNMPDPITARESIWLPFMETELHCDEKTIIIGHSSGAIAAMRYAETHRVYAIVLVSAYTSDLGDENERASGYFTRPWQWEKIKANCPYIVQFGSTDDPFLPWKEQQEVADRLETKLHKFTDCGHFQNTEFHELITVVKSLLKVPALEHHHHHH	soluble
MASRGLDLWLDEHVWKRKQEIGVKGENLLLPDLWLDFLQLSPIFQRKLAAVIACVRRLRTQATVYPEEDMCMAWARFCDPSDIKVVILGQDPYHGGQANGLAFSVAYGFPVPPSLRNIYAELHRSLPEFSPPDHGCLDAWASQGVLLLNTILTVQKGKPGSHADIGWAWFTDHVISLLSERLKACVFMLWGAKAGDKASLINSKKHLVLTSQHPSPLAQNSTRKSAQQKFLGNNHFVLANNFLREKGLGEIDWRL	soluble
MASVGIFFGSDTGNTEAIAKMIQKQLGKKLVHVQDIAKSSKEDINNFDLLLLGIPTWYYGEAQCDWDDFFPELEAIDFSTKLVAIFGCGDQEDYAEYFCDAMGTVRDIIQAKGATIVGHWPTEGYEFEASKALVDENHFVGLCIDEDRQPELTEQRVTKWVNQVYEEMCLAELED	not soluble
MASVTEQFNDIISLYSTKLEHTSLRQDSPEYQGLLLSTIKKLLNLKTAIFDRLALFSTNETIDDVSTASIKFLAVDYYLGLLISRRQSNDSDVAQRQSMKLIYLKKSVESFINFLTLLQDYKLLDPLVGEKLGNFKDRYNPQLSELYAQPKNNKDLSGAQLKRKEKIELFQRNKEISTKLHCLELELKNNDEDHDHDELLRELYLMRLHHFSLDTINNIEQNLFECEMLSNFLK	soluble
MASYSEDQCSWRGSGLSQAVKNVEQVWLRCAEGSVEWLYPAGALRLTLSPRLPWSAMGPGESSRSPVSVCVKPDPHWGGAQLYLERDGVLELLVGDETSTTPGPAHVRCFSALPGERPALFLQATPHRDISRRIAAFRYELRGDWTAQPAVNTDPVSSEGACRPCNNTEILMAVCTSDFVVRGNIRSVGTDSNLNAAVIKVSATRVYRQKFALFPESGRLTRSGEIRTPLQCGVRPGAGSFLFTGRVHFGEAWLGCAPRYKDFLKAYEQAKQSLMIPCTLVND	not soluble
MATAETSVLIGYLSDYGYSDRLSQAIGRGLVKTGVAVEMVDLRAVDPQELIEAVSSARGIVLGTPPSQPSEAVATALSTIFAAAHNKQAIGLFDSYGGDDEPIDALLAQFRNLGLHTAFPPIRVKDQPTEAIYQQCEESGTDLGQWLTRADAIQTMKSLEHHHHHH	not soluble
MATHKPINILEAFAAAPPPLDYVLPNMVAGTVGALVSPGGAGKSMLALQLAAQIAGGPDLLEVGELPTGPVIYLPAEDPPTAIHHRLHALGAHLSAEERQAVADGLLIQPLIGSLPNIMAPEWFDGLKRAAEGRRLMVLDTLRRFHIEEENASGPMAQVIGRMEAIAADTGCSIVFLHHASKGAAMMGAGDQQQASRGSSVLVDNIRWQSYLSSMTSAEAEEWGVDDDQRRFFVRFGVSKANYGAPFADRWFRRHDGGVLKPAVLERQRKSKGVPRGEA	soluble
MATISSLGSSGLELEGILEKLQAAEEKKLTLITARQASYETRISAYSKIQAAVEAVQKAAATLGSIDTLSAVKAVVSGDGLSVKTAAGAVPGQYTVNIDKLATAQNLQSGELDSRTDKHGTGGSIEIVQKDGTTTTVTLGEDTSLNGIVKAINGTDGLDVRATVISDGNGKHYLMLNNKTEGTEAAVTRITVSGNQEVADILDFDAANAGASNLTVQLAAQKAELTINGIPVVSDTNTVETAIDGLTLTLTKQTAAPLTVTVSSDPSVAATAVNDFVKAYNGLQTTIADLTAFDVKAEKQSALTGDGTTRNIQSAIAAALRVATGEGTLRTLSQLGITTDPKTGSLKTDTEKLEAALRDNPADVARIFSGPFGLGEKVKLATEQILGDEGSIKIRQEGLEETLESLQNQYDRQKLSIAATIEAYRKQFVQLDVFVTQMNNTSNYLSQQFAALSGTKK	not soluble
MATITDNDVALTITKIHQIQGSGTAFNSAFGGIRTIEGVVVAAFPGGSGLNGFFVQEEDADTDNDSTTSEGIFVFDPTGQFSGSVGDKVRVTGSVSEFSTNNGVSSLTQLSSVSSIINLGADILPKMSNIQLPVTTVADLERYEGMRVNISAGNGDLTVTEHFQLGRFGQVVLSATGTSNQPGTDGRLEQYTQFNDPSVAGYAAYLDEIAKRRIILDDGSSTQNPATIIFGRGGEPLSATNTLRGGDTVASITGVLDQRFEGYRVQTSTGVDFTPANPRPATTPDVGGTLKVASFNVLNYFNGDLEHHHHHH	not soluble
MATKKATMIIEKDFKIAEIDKRIYGSFIEHLGRAVYGGIYEPGHPQADENGFRQDVIELVKELQVPIIRYPGGNFVSGYNWEDGVGPKEQRPRRLDLAWKSVETNEIGLNEFMDWAKMVGAEVNMAVNLGTRGIDAARNLVEYCNHPSGSYYSDLRIAHGYKEPHKIKTWCLGNEMDGPWQIGHKTAVEYGRIACEAAKVMKWVDPTIELVVCGSSNRNMPTFAEWEATVLDHTYDHVDYISLHQYYGNRDNDTANYLALSLEMDDFIRSVVAIADYVKAKKRSKKTIHLSFDEWNVWYHSNEADKLIEPWTVAPPLLEDIYNFEDALLVGCMLITLMKHADRVKIACLAQLVNVIAPIMTEKNGPAWKQTIYYPFMHASVYGRGVALHPVISSPKYDSKDFTDVPYLESIAVYNEEKEEVTIFAVNRDMEDALLLECDVRSFEDYRVIEHIVLEHDNVKQTNSAQSSPVVPHRNGDAQLSDRKVSATLPKLSWNVIRLGKR	soluble
MATLEQKLTVLISDTIESMGYELVGVECQHAGRFLTVRLYIDKEGGVTIDDCSDVSRQVSAIFDVEDPISDKYNLEVSSPGLDRPLFTLAHYARFVGREMVIHLRIPMFDRRKWQGKLTKVDGDLISLEIENNGEHQFIFSNIQKANLIPVFDF	not soluble
MATPLWQTIYNNAVLLPESPKAIVHFLGGAFIAAAPQVTYRRLLEGLGDRGFAVIATPFINTFDHTTLADEVGRSYRLAYERLLALGLISPELPIFGVGHSMGSKLHLLMGCAQTSDRRGNVLLAFNNYSARRSIPLLGQLAPALDVTVEFSPSPARTLRLIRDRYSVANNLLVKFRNDEIDQTRDLIGALRDRFPETSEWLRLSGNHLTPVGQSLPQQTGLAWLDGVSQLASRELGRDLEVVTTAIADWCDRQLTAPATVVLEHHHHHH	not soluble
MATTPETMENHAFDADMSFESALENYLSSDFGDLEEGSIVKGEIVRLGDDYVLVDVNFKSEGQIAANEFRDANGDLIIGVGDRVDVFVVRKNEMEGTITLSYEKAKRMQLFDQLEEVQEKNGVIKGRIVRRIKGGYTVDLGGVEAFLPGSHVDLRPVPDMDALVNQEYEFRVLKINRRRSNVIVSRRVLLEEERDSKRQDLLRTLEEGQVVKGKAKNITEYGVFVDLGGLDGLLHITDMSWKRIRHPKELVSLGQELELKVLSFDRDSQKVSLGMKQLVADPWQDITAKFPEGLRGQGKVTNLVDYGAFVELEPGVEGLVHISEMSWTRKLRHPSQMVRVGDEVEVVILGVDPDKKRISLGMKQVKPNPWEVVAEKYPEGTILEGVIKNITEFGMFIGIEDGIDGLIHVSDISWTKKIRHPNEMYKVGDVVQAKVLTVDQENEKFTLGVKQLAEDPWSRVPATYPVGTLVTGSVTNITDFGLFVEVEEGIEGLVHVSEISQKKIKSPSEIYKEGQEIQAKVIHVSAEERRLGLSIKQLKDEEERRKPKEFRSGSPEVGGQTLGDILKLKLEEDAADNLEHHHHHH	not soluble
MATVKIKFRPSSVDGKEGTVYYQVIHVRVARQISTSYRLFPAEWDKRRARIVAAPSDEGRRQHLSLLEGKIMEDTDRLEGIITTLERRRGAFTADDVVSAFNGGHYSLSFPVFMREVINGLKRLGKIRTSETYTSTLNSFIRFMEGRDVLPDDMDSDLMVAYEAWLESGGVSMNTISFYMRNLRAVYNRAVEKGLTVQRFPFKHVYTGVEKTTKRAVPLHVIKRLKSLDLSFEPAKAYARDMLLFSFYTRGMSMVDMAFLKKKDLNNGILSYRRKKTGQQLLIKWEPCMQEIVDRYNIPGSPYLLSVIDRPGTDERKQYINASHRINRHLKVLGKELGMSVPLTHYVARHSWASAARSKNIPISVISEGMGHDSETTTRIYLASLDTATIDRANKLILKSLQI	not soluble
MAVLKIISWNVNGLRAVHRKGFLKWFMEEKPDILCLQEIKAAPEQLPRKLRHVEGYRSFFTPAERKGYSGVAMYTKVPPSSLREGFGVERFDTEGRIQIADFDDFLLYNIYFPNGKMSEERLKYKLEFYDAFLEDVNRERDSGRNVIICGNFNTAHREIDLARPKENSNVSGFLPVERAWIDKFIENGYVDTFRMFNSDPGQYTWWSYRTRARERNVGWRLDYFFVNEEFKGKVKRSWILSDVMGSDHCPIGLEIELLEHHHHHH	soluble
MAVLWRLSAVCGALGGRALLLRTPVVRPAHISAFLQDRPIPEWCGVQHIHLSPSHHSGSKAASLHWTSERVVSVLLLGLLPAAYLNPCSAMDYSLAAALTLHGHWGLGQVVTDYVHGDALQKAAKAGLLALSALTFAGLCYFNYHDVGICKAVAMLWKL	not soluble
